Source: the supplement of paper PMC7877785
± gives the uncertainty stated by the source.

Assay: self-splicing fitness, log relative to wild type (ln ratio); higher = more splicing; Tetrahymena group I intron in knt gene, E. coli kanamycin selection, DiMSum; sequences stand for … in CUCUCU…GGAGGGAAAAGUUAUCAGGCAUGCACCUGGUAGCUAGUCUUUAAACCAAUAGAUUGCAUCGGUUUAAAAGGCAAGACCGUCAAAUUGCGGGAAAGGGGUCAACAGCCGUUCAGUACCAAGUCUCAGGGGAAACUUUGAGAUGGCCUUGCAAAGGGUAUGGUAAUAAGCUGACGGACAUGGUCCUAACCACGCAGCCAAGUCCUAAGUCAACAGAUCUUCUGUUGAUAUGGAUGCAGUUCACAGACUAAAUGUCGGUCGGGGAAGAUGUAUUCUUCUCAUAAGAUAUAGUCGGACCUCUCCUUAAUGGGAGCUAGCGGAUGAAGUGAUGCAACACUGGAGCCGCUGGGAACUAAUUUGUAUGCGAAAGUAUAUUGAUUAGUUUUGGAGUACUCGUGGUCG
Summary of the method: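 Library with all eight P1ex-region intron nucleotides randomised, intron inside the knt kanamycin-resistance gene on pET-22b(+), in E. coli BL21(DE3). Cells grew overnight at 37°C or 30°C on LB agar with or without 25 μg/mL kanamycin (plus 100 μg/mL carbenicillin, 50 μM IPTG, 0.2% rhamnose), in six replicate transformations. Pooled colonies were amplicon-sequenced on Illumina HiSeq 2500. DiMSum fitness is the error-weighted combination of wild-type-normalised replicate fold changes, kanamycin versus none.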

| Sequence | self-splicing fitness (ln) (30 °C) | self-splicing fitness (ln) (37 °C) |
| --- | --- | --- |
| GAGCAGCAAUAUUACGUAAU | -1.59 ± 0.063 | -0.994 ± 0.1 |
| GAGCAGCAAUAUUACGUAUU | -2.62 ± 0.066 | -1.32 ± 0.075 |
| GAGCAGCAAUAUUACGUCCC | -0.684 ± 0.11 | -0.465 ± 0.19 |
| GAGCAGCAAUAUUACGUCUU | -3.01 ± 0.19 | -1.23 ± 0.15 |
| GAGCAGCAAUAUUACGUGAU | -2.21 ± 0.082 | -0.968 ± 0.084 |
| GAGCAGCAAUAUUACGUUCC | -3.51 ± 0.17 | -3.28 ± 0.21 |
| GAGGAGCAAUAUUACGACAC | -0.706 ± 0.35 | -0.696 ± 0.31 |
| GAGGAGCAAUAUUACGACUA | -1.32 ± 0.43 | -1.47 ± 0.37 |
| GAGGAGCAAUAUUACGAGGC | -3.47 ± 0.47 | – |
| GAGGAGCAAUAUUACGGAAU | -3.82 ± 0.37 | – |
| GAGGAGCAAUAUUACGGAGG | – | -2.2 ± 0.24 |
| GAGGAGCAAUAUUACGGGAA | -2.81 ± 0.26 | -1.84 ± 0.46 |
| GAGGAGCAAUAUUACGGGAU | -2.69 ± 0.28 | – |
| GAGGAGCAAUAUUACGGUCU | -3.51 ± 0.48 | -0.511 ± 0.21 |
| GAGGAGCAAUAUUACGUAAA | -3.86 ± 0.17 | -1.32 ± 0.13 |
| GAGGAGCAAUAUUACGUACC | -0.85 ± 0.31 | -0.663 ± 0.27 |
| GAGGAGCAAUAUUACGUAGU | -2.29 ± 0.19 | -2.19 ± 0.3 |
| GAGGAGCAAUAUUACGUGAU | – | -2.02 ± 0.27 |
| GAGGAGCAAUAUUACGUGUC | -3.51 ± 0.27 | -1.91 ± 0.2 |
| GAGUAGCAAUAUUACGAAGU | -2.93 ± 0.18 | -2.1 ± 0.15 |
| GAGUAGCAAUAUUACGACCA | -1.81 ± 0.12 | 0.176 ± 0.15 |
| GAGUAGCAAUAUUACGAGCC | -1.67 ± 0.2 | -1.26 ± 0.19 |
| GAGUAGCAAUAUUACGAUUC | -0.85 ± 0.18 | -0.0237 ± 0.24 |
| GAGUAGCAAUAUUACGCAUC | -2.66 ± 0.32 | -2.17 ± 0.28 |
| GAGUAGCAAUAUUACGCGGA | -2.61 ± 0.17 | -2.06 ± 0.17 |

| Sequence | self-splicing fitness (ln) (30 °C) | self-splicing fitness (ln) (37 °C) |
| --- | --- | --- |
| GAGUAGCAAUAUUACGCUCG | -1.88 ± 0.28 | -0.561 ± 0.29 |
| GAGUAGCAAUAUUACGCUGU | -3.36 ± 0.23 | -1.48 ± 0.22 |
| GAGUAGCAAUAUUACGCUUA | -1.45 ± 0.13 | -0.422 ± 0.12 |
| GAGUAGCAAUAUUACGGAGC | -2.75 ± 0.23 | -1.8 ± 0.27 |
| GAGUAGCAAUAUUACGGAGU | -3.7 ± 0.27 | -3.05 ± 0.19 |
| GAGUAGCAAUAUUACGGAUA | -2.11 ± 0.25 | -2.41 ± 0.25 |
| GAGUAGCAAUAUUACGGCGC | -0.602 ± 0.14 | 0.407 ± 0.19 |
| GAGUAGCAAUAUUACGGGCG | -1.89 ± 0.12 | -0.779 ± 0.12 |
| GAGUAGCAAUAUUACGGGGC | -2.79 ± 0.28 | -1.98 ± 0.33 |
| GAGUAGCAAUAUUACGGGUU | -2.25 ± 0.14 | -1.81 ± 0.2 |
| GAGUAGCAAUAUUACGGUGG | -3.37 ± 0.26 | -2.15 ± 0.18 |
| GAGUAGCAAUAUUACGUAAA | – | -0.672 ± 0.33 |
| GAGUAGCAAUAUUACGUAAC | -2.12 ± 0.1 | -2.95 ± 0.17 |
| GAGUAGCAAUAUUACGUCUU | -1.94 ± 0.16 | -1.49 ± 0.17 |
| GAUAAGCAAUAUUACGAGCG | -1.25 ± 0.1 | -0.755 ± 0.11 |
| GAUAAGCAAUAUUACGAUGC | -0.7 ± 0.11 | -0.45 ± 0.11 |
| GAUAAGCAAUAUUACGCAAU | -2.21 ± 0.13 | -0.936 ± 0.16 |
| GAUAAGCAAUAUUACGCAGU | -2.94 ± 0.2 | -1.65 ± 0.24 |
| GAUAAGCAAUAUUACGCCAA | -1.91 ± 0.2 | -2.16 ± 0.22 |
| GAUAAGCAAUAUUACGCCCC | -2.27 ± 0.32 | -1.43 ± 0.33 |
| GAUAAGCAAUAUUACGCCCG | -2.05 ± 0.2 | -0.456 ± 0.24 |
| GAUAAGCAAUAUUACGCCGC | – | -1.99 ± 0.41 |
| GAUAAGCAAUAUUACGCCGG | -1.66 ± 0.2 | -1.06 ± 0.14 |
| GAUAAGCAAUAUUACGCGAC | -1.41 ± 0.14 | -1.54 ± 0.23 |
| GAUAAGCAAUAUUACGCGUG | -0.603 ± 0.072 | -0.471 ± 0.088 |

| Sequence | self-splicing fitness (ln) (30 °C) | self-splicing fitness (ln) (37 °C) |
| --- | --- | --- |
| GAUAAGCAAUAUUACGCUCU | -2.11 ± 0.18 | -0.116 ± 0.2 |
| GAUAAGCAAUAUUACGGGAA | -2.84 ± 0.25 | -1.99 ± 0.22 |
| GAUAAGCAAUAUUACGGGUA | -1.69 ± 0.14 | -1.37 ± 0.17 |
| GAUAAGCAAUAUUACGGGUC | -3.26 ± 0.14 | -1.81 ± 0.13 |
| GAUAAGCAAUAUUACGGUCU | -2.33 ± 0.12 | -1.46 ± 0.14 |
| GAUAAGCAAUAUUACGGUGA | -1.61 ± 0.093 | -1.1 ± 0.12 |
| GAUAAGCAAUAUUACGGUUA | -0.72 ± 0.12 | 0.108 ± 0.11 |
| GAUAAGCAAUAUUACGUACC | -0.984 ± 0.2 | -0.641 ± 0.21 |
| GAUAAGCAAUAUUACGUCCA | -1.72 ± 0.15 | -0.215 ± 0.17 |
| GAUAAGCAAUAUUACGUGCA | -0.463 ± 0.15 | -1.06 ± 0.18 |
| GAUAAGCAAUAUUACGUGUC | -2.29 ± 0.21 | -2.5 ± 0.31 |
| GAUCAGCAAUAUUACGAAAA | -0.449 ± 0.2 | -0.691 ± 0.23 |
| GAUCAGCAAUAUUACGAAUA | -0.747 ± 0.11 | -0.471 ± 0.15 |
| GAUCAGCAAUAUUACGAAUC | -3.46 ± 0.41 | -2.61 ± 0.39 |
| GAUCAGCAAUAUUACGACCA | -1.08 ± 0.092 | 0.352 ± 0.15 |
| GAUCAGCAAUAUUACGAGAC | -3.07 ± 0.44 | -1.86 ± 0.13 |
| GAUCAGCAAUAUUACGAUAA | 0.273 ± 0.069 | 0.106 ± 0.076 |
| GAUCAGCAAUAUUACGCACU | 0.181 ± 0.092 | 0.467 ± 0.1 |
| GAUCAGCAAUAUUACGCCAA | -1.95 ± 0.15 | -0.747 ± 0.12 |
| GAUCAGCAAUAUUACGCCGG | -1.75 ± 0.18 | -1.41 ± 0.21 |
| GAUCAGCAAUAUUACGCUAU | -0.967 ± 0.24 | -0.471 ± 0.15 |
| GAUCAGCAAUAUUACGCUCA | -0.493 ± 0.084 | -0.611 ± 0.1 |
| GAUCAGCAAUAUUACGCUCG | 0.0547 ± 0.089 | -0.0564 ± 0.12 |
| GAUCAGCAAUAUUACGGAAC | -0.655 ± 0.094 | -0.0305 ± 0.12 |
| GAUCAGCAAUAUUACGGAAU | -1.27 ± 0.065 | -0.181 ± 0.087 |

| Sequence | self-splicing fitness (ln) (30 °C) | self-splicing fitness (ln) (37 °C) |
| --- | --- | --- |
| GAUCAGCAAUAUUACGGAGU | -1.16 ± 0.077 | -0.717 ± 0.11 |
| GAUCAGCAAUAUUACGGCCC | -1.65 ± 0.21 | -0.61 ± 0.2 |
| GAUCAGCAAUAUUACGGGGC | -3.2 ± 0.25 | -2.38 ± 0.22 |
| GAUCAGCAAUAUUACGGGUC | -3.38 ± 0.21 | -3.05 ± 0.25 |
| GAUCAGCAAUAUUACGGUGG | -1.36 ± 0.057 | -0.762 ± 0.073 |
| GAUCAGCAAUAUUACGUAGC | -0.999 ± 0.11 | -0.402 ± 0.12 |
| GAUCAGCAAUAUUACGUCCA | -0.96 ± 0.18 | -0.173 ± 0.17 |
| GAUCAGCAAUAUUACGUGUA | -1.36 ± 0.069 | -0.723 ± 0.082 |
| GAUCAGCAAUAUUACGUUCA | -0.939 ± 0.15 | -0.942 ± 0.18 |
| GAUGAGCAAUAUUACGAAAU | -1.53 ± 0.18 | -1.92 ± 0.37 |
| GAUGAGCAAUAUUACGAAGG | -1.14 ± 0.26 | – |
| GAUGAGCAAUAUUACGAAUC | -3.19 ± 0.41 | -1.89 ± 0.29 |
| GAUGAGCAAUAUUACGACAU | -1.797 ± 0.016 | -1.02 ± 0.034 |
| GAUGAGCAAUAUUACGACCG | -2.84 ± 0.36 | -1.95 ± 0.43 |
| GAUGAGCAAUAUUACGACUA | -1.79 ± 0.12 | -0.933 ± 0.11 |
| GAUGAGCAAUAUUACGCGAA | -3.16 ± 0.16 | -2.04 ± 0.17 |
| GAUGAGCAAUAUUACGCUGC | – | -1.25 ± 0.48 |
| GAUGAGCAAUAUUACGCUGG | -2.08 ± 0.18 | -1.02 ± 0.3 |
| GAUGAGCAAUAUUACGGACU | -1.79 ± 0.25 | -1.66 ± 0.38 |
| GAUGAGCAAUAUUACGGAGA | -2.91 ± 0.5 | -3 ± 0.47 |
| GAUGAGCAAUAUUACGGCAU | -1.71 ± 0.29 | -1.79 ± 0.39 |
| GAUGAGCAAUAUUACGGCUA | -1.01 ± 0.17 | -1.41 ± 0.17 |
| GAUGAGCAAUAUUACGGCUG | -1.42 ± 0.19 | -1.36 ± 0.16 |
